Measurements reported in patent US20220056087A1 (GLIKNIK, published 2022).
Each block holds one binder with its values, some of them ahead of it.

B1: mouse FcγRIIB (immobilized on CM4 chip) (receptor, UniProt P08101 30-207, looked up)
chain: THDLPKAVVKLEPPWIQVLKEDTVTLTCEGTHNPGNSSTQWFHNGRSIRSQVQASYTFKATVNDSGEYRCQMEQTRLSDPVDLGVISDWLLLQTPQLVFLEGETITLRCHSWRNKLLNRISFFHNEKSVRYHHYSSNFSIPKANHSHSGDYYCKGSLGRTLHQSKPVTITVQGPKSSR
notes: also called mouse FcγR2b
B4: mouse IgG2a Fc homodimers (other, UniProt P01863 98-330, looked up)
chain: EPRGPTIKPCPPCKCPAPNLLGGPSVFIFPPKIKDVLMISLSPIVTCVVVDVSEDDPDVQISWFVNNVEVHTAQTQTHREDYNSTLRVVSALPIQHQDWMSGKEFKCKVNNKDLPAPIERTISKPKGSVRAPQVYVLPPPEEEMTKKQVTLTCMVTDFMPEDIYVEWTNNGKTELNYKNTEPVLDSDGSYFMYSKLRVEKKNWVERNSYSCSVVHEGLHNHHTTKSFSRTPGK
notes: domain: Fc; also called IgG2a controls; IgG2a Fc control
B6: mouse FcγRIIIA (immobilized on CM4 chip) (receptor, UniProt P08508 31-215, looked up)
chain: ALPKAVVKLDPPWIQVLKEDMVTLMCEGTHNPGNSSTQWFHNGRSIRSQVQASYTFKATVNDSGEYRCQMEQTRLSDPVDLGVISDWLLLQTPQRVFLEGETITLRCHSWRNKLLNRISFFHNEKSVRYHHYKSNFSIPKANHSHSGDYYCKGSLGSTQHQSKPVTITVQDPATTSSISLVWYHT
notes: also called mouse FcγR3A

Key:
[1] = target: B4; assay: SPR (Biacore), receptor amine-coupled to a CM4 chip; panel 'Mse FcR2B'
Description: (§1) FcγRIIIA, FcγRIIB and SIGN-R1 receptors were immobilized to a CM4 chip using amine immobilization to 560, 500, and 1000RU, respectively to compensate for protein size.
(§2) Regeneration was achieved by a 10 sec injection of 1M MgCl at 100 ul/min, followed by a brief wash with running buffer. KDs were calculated using T100 evaluation software.

[2] = target: T1, G001 (native IgG1 Fc) (human, UniProt P01857-1 99-330 = IgG part); assay: BLI (Octet 96 Red), receptor on sensor, G001 in solution
T1 construct: domain: Fc; also called IgG1 Fc control; homodimeric monomer of IgG1 Fc
Description: For binding analysis of mouse protein, His-tagged mouse FcγRII (R&D system cat #1460-CD) and FcγRIII R&D system cat #1960) were separately loaded on anti-penta-His Biosensors (ForteBio cat #18-5077) at 10 ug/ml in 1× kinetic analysis buffer (ForteBio cat #18-5032). For binding analysis of human protein, His-tagged human FcγRIIb (R&D system cat #1875-CD) and FcγRIIIa R&D system cat #4325-Fc) were separately loaded on anti-penta-His Biosensors (ForteBio cat #18-5077) at 10 ug/ml in 1× kinetic analysis buffer (ForteBio cat #18-5032). Following sensor tip loading protein association was measured by transfer of tips to preparations of either monomeric fraction (over a range of concentrations) or the multimeric fractions (over a range of concentrations) in 1× kinetics analysis buffer and dissociation was measured by transfer of sensor tips to 1× kinetics buffer. Analysis was as described (Data Analysis User Guide 6.4ForteBio). Analysis was standardized as described above assigning a MW of 50 kD to homodimers and 150 kD to all other protein preparations.

[3] = target: B1; assay: SPR (Biacore), receptor amine-coupled to a CM4 chip, analyte 500 nM to 1.9 nM; panel 'Mse FcR2B'
Description: as §1, §2

[4] = target: T2, mouse SIGN-R1 (immobilized on CM4 chip) (mouse, UniProt Q8CJ91 74-325, limits assumed); assay: SPR (Biacore), receptor amine-coupled to a CM4 chip, analyte 500 nM to 1.9 nM; panel 'Mse SIGN-R1'
T2 sequence (looked up): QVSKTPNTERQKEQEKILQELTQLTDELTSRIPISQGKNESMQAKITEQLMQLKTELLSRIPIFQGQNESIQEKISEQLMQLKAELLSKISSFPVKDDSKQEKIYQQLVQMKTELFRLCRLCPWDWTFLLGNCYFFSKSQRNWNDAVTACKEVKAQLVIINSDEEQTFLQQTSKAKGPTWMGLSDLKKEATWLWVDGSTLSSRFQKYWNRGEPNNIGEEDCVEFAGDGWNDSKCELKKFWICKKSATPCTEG
Description: as §1, §2

[5] = target: T2, mouse SIGN-R1 (immobilized on CM4 chip); assay: SPR (Biacore) as in Example 4, SIGN-R1 on the chip; the sheet itself says the value cannot be accurately calculated; traces flat
Description: as §1, §2
(§3) M045F was first gel fractionated using an AktaXpress protein purification system and a GE HiLoad 16/60 Superdex 200 prep grade column.

[6] = target: B4; assay: SPR (Biacore), receptor amine-coupled to a CM4 chip; panel 'Mse FcR3A'
Description: as §1, §2

[7] = target: T2, mouse SIGN-R1 (immobilized on CM4 chip); assay: SPR (Biacore) as in Example 4, SIGN-R1 on the chip
Description: as §1, §2, §3

[8] = target: T2, mouse SIGN-R1 (immobilized on CM4 chip); assay: SPR (Biacore) as in Example 4, SIGN-R1 on the chip; the sheet itself says the value cannot be accurately calculated; traces nearly flat
Description: as §1, §2, §3

[9] = target: B6; assay: SPR (Biacore), receptor amine-coupled to a CM4 chip, analyte 500 nM to 1.9 nM; panel 'Mse FcR3A'
Description: as §1, §2

Binder: B1
Kd [1]: 642 nM

Kd [2]: 1510 nM
B2: His-tagged mouse FcγRII (R&D system cat #1460-CD) (receptor, UniProt P08101 30-207, looked up)
chain: THDLPKAVVKLEPPWIQVLKEDTVTLTCEGTHNPGNSSTQWFHNGRSIRSQVQASYTFKATVNDSGEYRCQMEQTRLSDPVDLGVISDWLLLQTPQLVFLEGETITLRCHSWRNKLLNRISFFHNEKSVRYHHYSSNFSIPKANHSHSGDYYCKGSLGRTLHQSKPVTITVQGPKSSR
notes: Bought protein; also called Mouse FcγRIIb; Mouse FcyRII

Kd [3]: 45.3 nM
binding result [4]: binds
B3: M019 stradomer (Fc fusion)
chain: ERKCCVECPPCPEPRGPTIKPCPPCKCPAPNLLGGPSVFIFPPKIKDVLMISLSPIVTCVVVDVSEDDPDVQISWFVNNVEVHTAQTQTHREDYNSTLRVVSALPIQHQDWMSGKEFKCKVNNKDLPAPIERTISKPKGSVRAPQVYVLPPPEEEMTKKQVTLTCMVTDFMPEDIYVEWTNNGKTELNYKNTEPVLDSDGSYFMYSKLRVEKKNWVERNSYSCSVVHEGLHNHHTTKSFSRTPGK
notes: Murine counterpart of G019 (N-terminal IgG2 hinge multimerization domain); The entry may include a leader

Binder: B4
Kd [5]: 132 nM

kon [2]: 124000 M⁻¹ s⁻¹
B5: Cynomolgus FcγRIIIa (receptor, UniProt Q8SPW2 17-208, looked up)
chain: GMRAEDLPKAVVFLEPQWYRVLEKDRVTLKCQGAYSPEDNSTRWFHNESLISSQTSSYFIAAARVNNSGEYRCQTSLSTLSDPVQLEVHIGWLLLQAPRWVFKEEESIHLRCHSWKNTLLHKVTYLQNGKGRKYFHQNSDFYIPKATLKDSGSYFCRGLIGSKNVSSETVNITITQDLAVSSISSFFPPGYQ

Binder: B6
Kd [6]: 80.1 nM

Kd [2]: 4180 nM
B7: His-tagged mouse FcγRIII (R&D system cat #1960) (receptor, UniProt P08508 31-215, looked up)
chain: ALPKAVVKLDPPWIQVLKEDMVTLMCEGTHNPGNSSTQWFHNGRSIRSQVQASYTFKATVNDSGEYRCQMEQTRLSDPVDLGVISDWLLLQTPQRVFLEGETITLRCHSWRNKLLNRISFFHNEKSVRYHHYKSNFSIPKANHSHSGDYYCKGSLGSTQHQSKPVTITVQDPATTSSISLVWYHT
notes: Bought protein; also called Mouse FcyRIII

Kd [2]: 2040 nM
B8: Cynomolgus FcγRIIb (receptor)
chain: TPAAPPKAVLKLEPPWINVLREDSVTLTCGGAHSPDSDSTQWFHNGNLIPTHTQPSYRFKANNNDSGEYRCQTGRTSLSDPVHLTVLSEWLALQTPHLEFREGETIMLRCHSWKDKPLIKVTFFQNGKSKKFSHMDPNFSIPQANHSHSGDYHCTGNIGYTPYSSKPVTITVQVP

Kd [7]: 334 nM
B9: M045c stradomer (Fc fusion)
chain: DEPRGPTIKPCPPCKCPAPNLLGGPSVFIFPPKIKDVLMISLSPIVTCVVVDVSEDDPDVQISWFVNNVEVHTAQTQTHREDYNSTLRVVSALPIQHQDWMSGKEFKCKVNNKDLPAPIERTISKPKGSVRAPQVYVLPPPEEEMTKKQVTLTCMVTDFMPEDIYVEWTNNGKTELNYKNTEPVLDSDGSYFMYSKLRVEKKNWVERNSYSCSVVHEGLHNHHTTKSFSRTPGKERKCCVECPPCP
notes: Murine counterpart of G045c; The entry may include a leader that is cleaved from the secreted protein; Mix of homodimers and multimers

Kd [7]: 91.2 nM
B10: M045 F2 (Fc fusion)
stradomer monomer: DEPRGPTIKPCPPCKCPAPNLLGGPSVFIFPPKIKDVLMISLSPIVTCVVVDVSEDDPDVQISWFVNNVEVHTAQTQTHREDYNSTLRVVSALPIQHQDWMSGKEFKCKVNNKDLPAPIERTISKPKGSVRAPQVYVLPPPEEEMTKKQVTLTCMVTDFMPEDIYVEWTNNGKTELNYKNTEPVLDSDGSYFMYSKLRVEKKNWVERNSYSCSVVHEGLHNHHTTKSFSRTPGKERKCCVECPPCP
notes: also called lower molecular weight multimer fraction of M045

Kd [8]: 11000 nM
B11: M045 F3 (Fc fusion)
stradomer monomer: DEPRGPTIKPCPPCKCPAPNLLGGPSVFIFPPKIKDVLMISLSPIVTCVVVDVSEDDPDVQISWFVNNVEVHTAQTQTHREDYNSTLRVVSALPIQHQDWMSGKEFKCKVNNKDLPAPIERTISKPKGSVRAPQVYVLPPPEEEMTKKQVTLTCMVTDFMPEDIYVEWTNNGKTELNYKNTEPVLDSDGSYFMYSKLRVEKKNWVERNSYSCSVVHEGLHNHHTTKSFSRTPGKERKCCVECPPCP
notes: also called homodimer fraction of M045

Kd [7]: 90.9 nM
B12: M045 F1 (highest molecular weight multimer fraction of M045c) (Fc fusion)
chain: DEPRGPTIKPCPPCKCPAPNLLGGPSVFIFPPKIKDVLMISLSPIVTCVVVDVSEDDPDVQISWFVNNVEVHTAQTQTHREDYNSTLRVVSALPIQHQDWMSGKEFKCKVNNKDLPAPIERTISKPKGSVRAPQVYVLPPPEEEMTKKQVTLTCMVTDFMPEDIYVEWTNNGKTELNYKNTEPVLDSDGSYFMYSKLRVEKKNWVERNSYSCSVVHEGLHNHHTTKSFSRTPGKERKCCVECPPCP
notes: The entry may include a leader; also called Fraction 1; M045 Fraction 1

Kd [7]: 638 nM
Kd [9]: 18.7 nM
B13: M028 stradomer (Fc fusion)
chain: SIKQIEDKIEEILSKIYHIENEIARIKKLIGERGEPRGPTIKPCPPCKCPAPNLLGGPSVFIFPPKIKDVLMISLSPIVTCVVVDVSEDDPDVQISWFVNNVEVHTAQTQTHREDYNSTLRVVSALPIQHQDWMSGKEFKCKVNNKDLPAPIERTISKPKGSVRAPQVYVLPPPEEEMTKKQVTLTCMVTDFMPEDIYVEWTNNGKTELNYKNTEPVLDSDGSYFMYSKLRVEKKNWVERNSYSCSVVHEGLHNHHTTKSFSRTPGK
notes: Murine counterpart of G028 (N-terminal isoleucine zipper); The entry may include a leader

Kd [2]: 1310 nM
B14: His-tagged human FcγRIIb (R&D system cat #1875-CD) (receptor, UniProt P31994 46-217, looked up)
chain: APPKAVLKLEPQWINVLQEDSVTLTCRGTHSPESDSIQWFHNGNLIPTHTQPSYRFKANNNDSGEYTCQTGQTSLSDPVHLTVLSEWLVLQTPHLEFQEGETIVLRCHSWKDKPLVKVTFFQNGKSKKFSRSDPNFSIPQANHSHSGDYHCTGNIGYTLYSSKPVTITVQAP
notes: Bought protein
